From the Immune Epitope Database (IEDB)
pKd: −log10 of the molar value.

Tests used:
[1] = molecular target: HLA-B*57:01; experiment: IEDB peptide-MHC binding, purified MHC/direct/fluorescence; filed as Kd, often an IC50 or EC50 that approximates it; ≥ and ≤ were set here for values at or beyond the usual limits of such assays
[2] = molecular target: HLA-A*31:01; experiment: as above
[3] = molecular target: HLA-B*15:01; experiment: as above
[4] = molecular target: HLA-B*46:01; experiment: as above
[5] = molecular target: HLA-B*51:01; experiment: as above
[6] = molecular target: HLA-B*40:01; experiment: as above
[7] = molecular target: HLA-A*11:01; experiment: as above
[8] = molecular target: HLA-B*27:05; experiment: as above
[9] = molecular target: HLA-B*18:01; experiment: as above
[10] = molecular target: HLA-B*15:17; experiment: as above
[11] = molecular target: HLA-A*03:01; experiment: as above
[12] = molecular target: HLA-B*58:01; experiment: as above
[13] = molecular target: HLA-B*48:01; experiment: as above
[14] = molecular target: HLA-A*02:01; experiment: as above
[15] = molecular target: HLA-A*69:01; experiment: as above
[16] = molecular target: HLA-B*38:01; experiment: as above
[17] = molecular target: HLA-A*01:01; experiment: IEDB peptide-MHC binding, purified MHC/competitive/fluorescence; filed as Kd, often an IC50 or EC50 that approximates it; ≥ and ≤ were set here for values at or beyond the usual limits of such assays; conditions: source organism: Mycobacterium tuberculosis str. Haarlem
[18] = molecular target: HLA-A*01:01; experiment: IEDB peptide-MHC binding, purified MHC/direct/fluorescence; filed as Kd, often an IC50 or EC50 that approximates it; ≥ and ≤ were set here for values at or beyond the usual limits of such assays
[19] = molecular target: HLA-B*07:02; experiment: as above; conditions: source organism: Vibrio vulnificus YJ016
[20] = molecular target: HLA-B*39:01; experiment: as above
[21] = molecular target: HLA-A*26:01; experiment: IEDB peptide-MHC binding, purified MHC/competitive/fluorescence; filed as Kd, often an IC50 or EC50 that approximates it; ≥ and ≤ were set here for values at or beyond the usual limits of such assays; conditions: source organism: Vibrio vulnificus YJ016
[22] = molecular target: HLA-A*02:01; experiment: as above; conditions: source organism: Vibrio vulnificus YJ016
[23] = molecular target: HLA-A*30:01; experiment: as above; conditions: source organism: Vibrio vulnificus YJ016
[24] = molecular target: HLA-A*69:01; experiment: as above; conditions: source organism: Vibrio vulnificus YJ016
[25] = molecular target: HLA-B*08:02; experiment: IEDB peptide-MHC binding, purified MHC/direct/fluorescence; filed as Kd, often an IC50 or EC50 that approximates it; ≥ and ≤ were set here for values at or beyond the usual limits of such assays; conditions: source organism: Vibrio parahaemolyticus AQ3810
[26] = molecular target: HLA-A*26:01; experiment: as above; conditions: source organism: Vibrio parahaemolyticus AQ3810
[27] = molecular target: HLA-B*15:01; experiment: IEDB peptide-MHC binding, purified MHC/competitive/fluorescence; filed as Kd, often an IC50 or EC50 that approximates it; ≥ and ≤ were set here for values at or beyond the usual limits of such assays; conditions: source organism: Vibrio parahaemolyticus RIMD 2210633
[28] = molecular target: HLA-B*15:17; experiment: as above; conditions: source organism: Vibrio parahaemolyticus RIMD 2210633
[29] = molecular target: HLA-A*03:01; experiment: as above; conditions: source organism: Vibrio parahaemolyticus RIMD 2210633
[30] = source organism: Mycobacterium tuberculosis
[31] = source organism: Vibrio vulnificus YJ016
[32] = source organism: Vibrio parahaemolyticus
[33] = source organism: Vibrio parahaemolyticus AQ3810

Measured: pKd

GPAGYTAAL
≤ 4.70: [1]; [30] | [2]; [30] | [3]; [30] | [4]; [30] | [5]; [30] | [6]; [30] | [7]; [30] | [8]; [30] | [9]; [30] | [10]; [30] | [11]; [30] | [12]; [30] | [13]; [30] | [14]; [30] | [15]; [30] | [16]; source organism: Mycobacterium tuberculosis str. Haarlem | [17]

IVAQGIAAL
≤ 4.70: [1]; [31] | [2]; [31] | [5]; [31] | [6]; [31] | [7]; [31] | [8]; [31] | [18]; [31] | [9]; [31] | [11]; [31] | [12]; [31] | [13]; [31] | [16]; [31] | [21] | [23]
8.11: [24]
7.07: [19]
6.66: [20]; [31]
5.05: [4]; [31]
7.74: [22]
7.32: [3]; [31] | [10]; [31]

RSTLANGWY
6.56: [18]; [32]
6.57: [1]; [32]
6.23: [26]
≤ 4.70: [2]; [32] | [4]; [32] | [6]; [32] | [7]; [32] | [8]; [32] | [9]; [32] | [25] | [20]; [33] | [13]; [32] | [14]; [32] | [15]; [32] | [16]; [33]
8.92: [28]
5.83: [29]
7.03: [27]
7.23: [12]; [32]
